The results in this text go back to patent US20200317768A1 (published 2020).

T1: cynomolgus monkey FcγRIIIaS extracellular domain, His-tagged (cynomolgus monkey, UniProt Q8SPW2 21-206 at identity 1.00))
T1 construct: also called cyno FcγRIIIaS; cynoFcγRIIIaS
T1 chain: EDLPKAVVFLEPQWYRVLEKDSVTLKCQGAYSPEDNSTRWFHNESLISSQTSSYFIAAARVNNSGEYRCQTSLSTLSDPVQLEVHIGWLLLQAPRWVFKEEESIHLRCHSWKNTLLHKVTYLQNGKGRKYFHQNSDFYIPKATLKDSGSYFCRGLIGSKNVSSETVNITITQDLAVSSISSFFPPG

B1: MS_M103205H795-SG1/M103202L889-SK1 (antibody, human IgG1, kappa)
heavy: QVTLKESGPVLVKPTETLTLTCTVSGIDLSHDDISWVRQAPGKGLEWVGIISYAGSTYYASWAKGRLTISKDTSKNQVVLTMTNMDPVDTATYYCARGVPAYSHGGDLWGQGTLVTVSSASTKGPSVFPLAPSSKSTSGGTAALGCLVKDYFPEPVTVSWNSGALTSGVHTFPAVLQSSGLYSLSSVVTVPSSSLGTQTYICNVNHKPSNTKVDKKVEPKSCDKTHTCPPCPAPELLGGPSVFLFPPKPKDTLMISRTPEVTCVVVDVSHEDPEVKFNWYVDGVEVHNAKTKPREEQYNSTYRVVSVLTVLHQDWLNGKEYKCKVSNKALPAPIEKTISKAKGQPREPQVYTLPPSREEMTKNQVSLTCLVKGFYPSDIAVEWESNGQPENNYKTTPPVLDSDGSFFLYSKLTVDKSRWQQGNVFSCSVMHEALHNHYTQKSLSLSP
light: DIVMTQSPATLSLSPGERATLSCTSSQSVYHANWLSWFQQKPGQPPKLLIYWASTLAYGVPSRFSGSGSGTDFTLTISSLQPEDAATYYCAGGYGGGRYAFGQGTKVEIKRTVAAPSVFIFPPSDEQLKSGTASVVCLLNNFYPREAKVQWKVDNALQSGNSQESVTEQDSKDSTYSLSSTLTLSKADYEKHKVYACEVTHQGLSSPVTKSFNRGEC
notes: Parent antibody of the Fc variants; heavy chain constant region SG1, light chain M103202L889-SK1; also called MS1032LO06-SG1
B2: M103205H795-MY071/M103202L889-SK1 (antibody, human IgG1, kappa)
heavy: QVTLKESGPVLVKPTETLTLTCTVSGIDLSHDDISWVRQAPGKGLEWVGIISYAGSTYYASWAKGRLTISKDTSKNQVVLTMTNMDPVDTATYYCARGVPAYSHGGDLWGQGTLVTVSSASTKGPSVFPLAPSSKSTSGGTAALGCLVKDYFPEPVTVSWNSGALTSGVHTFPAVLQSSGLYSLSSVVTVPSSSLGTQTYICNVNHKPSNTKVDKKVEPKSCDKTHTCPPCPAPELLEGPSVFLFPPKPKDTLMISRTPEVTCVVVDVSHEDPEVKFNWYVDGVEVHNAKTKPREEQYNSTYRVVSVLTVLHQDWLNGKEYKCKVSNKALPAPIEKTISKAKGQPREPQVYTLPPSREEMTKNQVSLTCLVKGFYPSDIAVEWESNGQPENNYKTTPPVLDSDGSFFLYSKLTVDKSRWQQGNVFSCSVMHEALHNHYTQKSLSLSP
light: DIVMTQSPATLSLSPGERATLSCTSSQSVYHANWLSWFQQKPGQPPKLLIYWASTLAYGVPSRFSGSGSGTDFTLTISSLQPEDAATYYCAGGYGGGRYAFGQGTKVEIKRTVAAPSVFIFPPSDEQLKSGTASVVCLLNNFYPREAKVQWKVDNALQSGNSQESVTEQDSKDSTYSLSSTLTLSKADYEKHKVYACEVTHQGLSSPVTKSFNRGEC
notes: Substitution put into M103205H795-SG1
B3: M103205H795-MY038/M103202L889-SK1 (antibody, human IgG1, kappa)
heavy: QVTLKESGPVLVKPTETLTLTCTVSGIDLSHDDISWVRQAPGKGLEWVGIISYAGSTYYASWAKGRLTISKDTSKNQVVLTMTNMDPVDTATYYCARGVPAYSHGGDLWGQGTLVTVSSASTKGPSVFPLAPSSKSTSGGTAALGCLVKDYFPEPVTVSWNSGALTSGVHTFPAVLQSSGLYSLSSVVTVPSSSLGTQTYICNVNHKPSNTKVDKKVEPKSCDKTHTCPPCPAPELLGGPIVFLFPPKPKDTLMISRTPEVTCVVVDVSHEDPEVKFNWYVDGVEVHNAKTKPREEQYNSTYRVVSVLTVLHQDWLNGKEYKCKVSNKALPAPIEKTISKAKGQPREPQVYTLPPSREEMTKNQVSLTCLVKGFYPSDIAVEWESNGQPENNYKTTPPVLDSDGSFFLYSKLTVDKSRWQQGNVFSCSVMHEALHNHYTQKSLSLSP
light: DIVMTQSPATLSLSPGERATLSCTSSQSVYHANWLSWFQQKPGQPPKLLIYWASTLAYGVPSRFSGSGSGTDFTLTISSLQPEDAATYYCAGGYGGGRYAFGQGTKVEIKRTVAAPSVFIFPPSDEQLKSGTASVVCLLNNFYPREAKVQWKVDNALQSGNSQESVTEQDSKDSTYSLSSTLTLSKADYEKHKVYACEVTHQGLSSPVTKSFNRGEC
notes: as for B2
B4: M103205H795-MY070/M103202L889-SK1 (antibody, human IgG1, kappa)
heavy: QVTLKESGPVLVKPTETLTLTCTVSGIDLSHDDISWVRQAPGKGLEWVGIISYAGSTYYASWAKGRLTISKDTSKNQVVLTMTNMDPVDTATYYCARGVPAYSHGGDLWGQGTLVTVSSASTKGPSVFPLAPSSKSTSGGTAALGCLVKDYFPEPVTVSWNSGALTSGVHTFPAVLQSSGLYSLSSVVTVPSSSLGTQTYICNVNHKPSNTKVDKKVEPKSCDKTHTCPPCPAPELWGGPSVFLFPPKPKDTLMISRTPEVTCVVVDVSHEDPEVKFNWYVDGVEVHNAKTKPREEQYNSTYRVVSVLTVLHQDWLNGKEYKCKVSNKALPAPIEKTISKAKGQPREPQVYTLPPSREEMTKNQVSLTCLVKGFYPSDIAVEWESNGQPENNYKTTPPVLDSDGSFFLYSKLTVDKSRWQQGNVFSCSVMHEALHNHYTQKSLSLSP
light: DIVMTQSPATLSLSPGERATLSCTSSQSVYHANWLSWFQQKPGQPPKLLIYWASTLAYGVPSRFSGSGSGTDFTLTISSLQPEDAATYYCAGGYGGGRYAFGQGTKVEIKRTVAAPSVFIFPPSDEQLKSGTASVVCLLNNFYPREAKVQWKVDNALQSGNSQESVTEQDSKDSTYSLSSTLTLSKADYEKHKVYACEVTHQGLSSPVTKSFNRGEC
notes: as for B2
B5: M103205H795-MY068/M103202L889-SK1 (antibody, human IgG1, kappa)
heavy: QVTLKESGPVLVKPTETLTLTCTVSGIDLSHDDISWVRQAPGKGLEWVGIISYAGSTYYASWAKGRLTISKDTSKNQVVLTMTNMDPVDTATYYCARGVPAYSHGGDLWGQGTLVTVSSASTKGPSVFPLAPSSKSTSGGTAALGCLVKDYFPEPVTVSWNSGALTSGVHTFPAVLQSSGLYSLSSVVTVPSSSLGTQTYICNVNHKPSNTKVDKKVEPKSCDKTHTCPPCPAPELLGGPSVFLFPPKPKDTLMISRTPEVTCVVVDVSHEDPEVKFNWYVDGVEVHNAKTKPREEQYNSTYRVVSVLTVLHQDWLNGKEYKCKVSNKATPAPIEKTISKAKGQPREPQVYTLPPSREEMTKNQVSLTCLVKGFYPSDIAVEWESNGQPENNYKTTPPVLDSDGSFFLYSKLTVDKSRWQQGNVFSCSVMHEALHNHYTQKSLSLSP
light: DIVMTQSPATLSLSPGERATLSCTSSQSVYHANWLSWFQQKPGQPPKLLIYWASTLAYGVPSRFSGSGSGTDFTLTISSLQPEDAATYYCAGGYGGGRYAFGQGTKVEIKRTVAAPSVFIFPPSDEQLKSGTASVVCLLNNFYPREAKVQWKVDNALQSGNSQESVTEQDSKDSTYSLSSTLTLSKADYEKHKVYACEVTHQGLSSPVTKSFNRGEC
notes: as for B2
B6: M103205H795-MY010/M103202L889-SK1 (antibody, human IgG1, kappa)
heavy: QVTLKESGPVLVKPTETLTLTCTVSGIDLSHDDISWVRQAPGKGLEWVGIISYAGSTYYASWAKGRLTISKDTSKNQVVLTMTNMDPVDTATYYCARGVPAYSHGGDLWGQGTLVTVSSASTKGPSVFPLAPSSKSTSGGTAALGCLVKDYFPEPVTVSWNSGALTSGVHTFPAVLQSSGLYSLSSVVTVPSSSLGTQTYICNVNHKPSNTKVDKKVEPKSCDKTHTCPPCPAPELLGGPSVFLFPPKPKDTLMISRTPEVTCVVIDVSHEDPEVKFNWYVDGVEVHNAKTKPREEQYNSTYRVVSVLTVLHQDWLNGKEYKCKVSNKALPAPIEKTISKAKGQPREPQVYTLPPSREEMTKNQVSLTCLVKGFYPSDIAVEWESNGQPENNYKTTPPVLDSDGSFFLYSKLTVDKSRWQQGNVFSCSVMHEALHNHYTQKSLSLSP
light: DIVMTQSPATLSLSPGERATLSCTSSQSVYHANWLSWFQQKPGQPPKLLIYWASTLAYGVPSRFSGSGSGTDFTLTISSLQPEDAATYYCAGGYGGGRYAFGQGTKVEIKRTVAAPSVFIFPPSDEQLKSGTASVVCLLNNFYPREAKVQWKVDNALQSGNSQESVTEQDSKDSTYSLSSTLTLSKADYEKHKVYACEVTHQGLSSPVTKSFNRGEC
notes: as for B2
B7: M103205H795-MY065/M103202L889-SK1 (antibody, human IgG1, kappa)
heavy: not shown
light: DIVMTQSPATLSLSPGERATLSCTSSQSVYHANWLSWFQQKPGQPPKLLIYWASTLAYGVPSRFSGSGSGTDFTLTISSLQPEDAATYYCAGGYGGGRYAFGQGTKVEIKRTVAAPSVFIFPPSDEQLKSGTASVVCLLNNFYPREAKVQWKVDNALQSGNSQESVTEQDSKDSTYSLSSTLTLSKADYEKHKVYACEVTHQGLSSPVTKSFNRGEC
notes: as for B2
B8: M103205H795-MY006/M103202L889-SK1 (antibody, human IgG1, kappa)
heavy: not shown
light: DIVMTQSPATLSLSPGERATLSCTSSQSVYHANWLSWFQQKPGQPPKLLIYWASTLAYGVPSRFSGSGSGTDFTLTISSLQPEDAATYYCAGGYGGGRYAFGQGTKVEIKRTVAAPSVFIFPPSDEQLKSGTASVVCLLNNFYPREAKVQWKVDNALQSGNSQESVTEQDSKDSTYSLSSTLTLSKADYEKHKVYACEVTHQGLSSPVTKSFNRGEC
notes: as for B2
B9: M103205H795-MY008/M103202L889-SK1 (antibody, human IgG1, kappa)
heavy: not shown
light: DIVMTQSPATLSLSPGERATLSCTSSQSVYHANWLSWFQQKPGQPPKLLIYWASTLAYGVPSRFSGSGSGTDFTLTISSLQPEDAATYYCAGGYGGGRYAFGQGTKVEIKRTVAAPSVFIFPPSDEQLKSGTASVVCLLNNFYPREAKVQWKVDNALQSGNSQESVTEQDSKDSTYSLSSTLTLSKADYEKHKVYACEVTHQGLSSPVTKSFNRGEC
notes: as for B2
B10: M103205H795-MY064/M103202L889-SK1 (antibody, human IgG1, kappa)
heavy: not shown
light: DIVMTQSPATLSLSPGERATLSCTSSQSVYHANWLSWFQQKPGQPPKLLIYWASTLAYGVPSRFSGSGSGTDFTLTISSLQPEDAATYYCAGGYGGGRYAFGQGTKVEIKRTVAAPSVFIFPPSDEQLKSGTASVVCLLNNFYPREAKVQWKVDNALQSGNSQESVTEQDSKDSTYSLSSTLTLSKADYEKHKVYACEVTHQGLSSPVTKSFNRGEC
notes: as for B2
B11: M103205H795-MY048/M103202L889-SK1 (P271D) (antibody, human IgG1, kappa)
heavy: not shown
light: DIVMTQSPATLSLSPGERATLSCTSSQSVYHANWLSWFQQKPGQPPKLLIYWASTLAYGVPSRFSGSGSGTDFTLTISSLQPEDAATYYCAGGYGGGRYAFGQGTKVEIKRTVAAPSVFIFPPSDEQLKSGTASVVCLLNNFYPREAKVQWKVDNALQSGNSQESVTEQDSKDSTYSLSSTLTLSKADYEKHKVYACEVTHQGLSSPVTKSFNRGEC
notes: Here the P271D molecule is meant; Put into M103205H795-SG1
B12: M103205H795-MY016/M103202L889-SK1 (antibody, human IgG1, kappa)
heavy: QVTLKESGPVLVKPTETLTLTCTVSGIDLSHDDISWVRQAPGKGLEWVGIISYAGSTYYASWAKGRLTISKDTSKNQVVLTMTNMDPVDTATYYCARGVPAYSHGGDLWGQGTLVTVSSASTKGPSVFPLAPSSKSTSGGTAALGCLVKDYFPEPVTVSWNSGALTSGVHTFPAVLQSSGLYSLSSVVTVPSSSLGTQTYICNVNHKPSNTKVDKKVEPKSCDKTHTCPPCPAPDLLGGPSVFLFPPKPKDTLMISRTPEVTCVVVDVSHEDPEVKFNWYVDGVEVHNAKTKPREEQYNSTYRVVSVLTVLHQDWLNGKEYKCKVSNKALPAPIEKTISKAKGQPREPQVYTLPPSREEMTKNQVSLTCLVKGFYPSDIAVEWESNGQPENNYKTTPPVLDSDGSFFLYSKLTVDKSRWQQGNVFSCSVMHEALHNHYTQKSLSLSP
light: DIVMTQSPATLSLSPGERATLSCTSSQSVYHANWLSWFQQKPGQPPKLLIYWASTLAYGVPSRFSGSGSGTDFTLTISSLQPEDAATYYCAGGYGGGRYAFGQGTKVEIKRTVAAPSVFIFPPSDEQLKSGTASVVCLLNNFYPREAKVQWKVDNALQSGNSQESVTEQDSKDSTYSLSSTLTLSKADYEKHKVYACEVTHQGLSSPVTKSFNRGEC
notes: as for B2
B13: M103205H795-MY037/M103202L889-SK1 (antibody, human IgG1, kappa)
heavy: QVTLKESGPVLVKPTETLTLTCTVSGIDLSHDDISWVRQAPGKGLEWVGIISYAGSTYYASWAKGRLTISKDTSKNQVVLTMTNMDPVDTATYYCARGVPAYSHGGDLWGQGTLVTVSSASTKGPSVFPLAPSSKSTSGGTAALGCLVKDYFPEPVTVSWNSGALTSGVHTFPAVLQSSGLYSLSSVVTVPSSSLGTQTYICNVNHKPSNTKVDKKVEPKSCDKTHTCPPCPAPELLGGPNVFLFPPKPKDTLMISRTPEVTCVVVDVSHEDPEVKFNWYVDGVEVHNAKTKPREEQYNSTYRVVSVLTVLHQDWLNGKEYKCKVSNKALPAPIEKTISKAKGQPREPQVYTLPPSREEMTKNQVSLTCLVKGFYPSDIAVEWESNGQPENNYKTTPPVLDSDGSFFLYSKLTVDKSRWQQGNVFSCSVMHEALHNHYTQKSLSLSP
light: DIVMTQSPATLSLSPGERATLSCTSSQSVYHANWLSWFQQKPGQPPKLLIYWASTLAYGVPSRFSGSGSGTDFTLTISSLQPEDAATYYCAGGYGGGRYAFGQGTKVEIKRTVAAPSVFIFPPSDEQLKSGTASVVCLLNNFYPREAKVQWKVDNALQSGNSQESVTEQDSKDSTYSLSSTLTLSKADYEKHKVYACEVTHQGLSSPVTKSFNRGEC
notes: as for B2
B14: M103205H795-MY045/M103202L889-SK1 (antibody, human IgG1, kappa)
heavy: not shown
light: DIVMTQSPATLSLSPGERATLSCTSSQSVYHANWLSWFQQKPGQPPKLLIYWASTLAYGVPSRFSGSGSGTDFTLTISSLQPEDAATYYCAGGYGGGRYAFGQGTKVEIKRTVAAPSVFIFPPSDEQLKSGTASVVCLLNNFYPREAKVQWKVDNALQSGNSQESVTEQDSKDSTYSLSSTLTLSKADYEKHKVYACEVTHQGLSSPVTKSFNRGEC
notes: as for B2
B15: M103205H795-MY041/M103202L889-SK1 (antibody, human IgG1, kappa)
heavy: not shown
light: DIVMTQSPATLSLSPGERATLSCTSSQSVYHANWLSWFQQKPGQPPKLLIYWASTLAYGVPSRFSGSGSGTDFTLTISSLQPEDAATYYCAGGYGGGRYAFGQGTKVEIKRTVAAPSVFIFPPSDEQLKSGTASVVCLLNNFYPREAKVQWKVDNALQSGNSQESVTEQDSKDSTYSLSSTLTLSKADYEKHKVYACEVTHQGLSSPVTKSFNRGEC
notes: as for B2
B16: M103205H795-MY069/M103202L889-SK1 (antibody, human IgG1, kappa)
heavy: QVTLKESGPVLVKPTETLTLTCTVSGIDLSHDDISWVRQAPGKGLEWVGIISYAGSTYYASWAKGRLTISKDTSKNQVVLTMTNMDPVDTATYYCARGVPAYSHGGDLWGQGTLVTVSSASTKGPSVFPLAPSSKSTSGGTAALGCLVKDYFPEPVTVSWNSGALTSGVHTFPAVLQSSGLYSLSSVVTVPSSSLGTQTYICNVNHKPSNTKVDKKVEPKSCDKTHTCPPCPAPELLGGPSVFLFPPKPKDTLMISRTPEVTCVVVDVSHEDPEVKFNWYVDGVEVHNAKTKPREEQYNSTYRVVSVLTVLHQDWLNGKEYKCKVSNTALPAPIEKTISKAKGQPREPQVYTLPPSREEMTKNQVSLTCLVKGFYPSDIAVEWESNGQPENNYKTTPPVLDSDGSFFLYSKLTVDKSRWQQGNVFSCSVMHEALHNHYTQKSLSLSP
light: DIVMTQSPATLSLSPGERATLSCTSSQSVYHANWLSWFQQKPGQPPKLLIYWASTLAYGVPSRFSGSGSGTDFTLTISSLQPEDAATYYCAGGYGGGRYAFGQGTKVEIKRTVAAPSVFIFPPSDEQLKSGTASVVCLLNNFYPREAKVQWKVDNALQSGNSQESVTEQDSKDSTYSLSSTLTLSKADYEKHKVYACEVTHQGLSSPVTKSFNRGEC
notes: as for B2
B17: M103205H795-MY063/M103202L889-SK1 (antibody, human IgG1, kappa)
heavy: not shown
light: DIVMTQSPATLSLSPGERATLSCTSSQSVYHANWLSWFQQKPGQPPKLLIYWASTLAYGVPSRFSGSGSGTDFTLTISSLQPEDAATYYCAGGYGGGRYAFGQGTKVEIKRTVAAPSVFIFPPSDEQLKSGTASVVCLLNNFYPREAKVQWKVDNALQSGNSQESVTEQDSKDSTYSLSSTLTLSKADYEKHKVYACEVTHQGLSSPVTKSFNRGEC
notes: as for B2
B18: M103205H795-MY013/M103202L889-SK1 (antibody, human IgG1, kappa)
heavy: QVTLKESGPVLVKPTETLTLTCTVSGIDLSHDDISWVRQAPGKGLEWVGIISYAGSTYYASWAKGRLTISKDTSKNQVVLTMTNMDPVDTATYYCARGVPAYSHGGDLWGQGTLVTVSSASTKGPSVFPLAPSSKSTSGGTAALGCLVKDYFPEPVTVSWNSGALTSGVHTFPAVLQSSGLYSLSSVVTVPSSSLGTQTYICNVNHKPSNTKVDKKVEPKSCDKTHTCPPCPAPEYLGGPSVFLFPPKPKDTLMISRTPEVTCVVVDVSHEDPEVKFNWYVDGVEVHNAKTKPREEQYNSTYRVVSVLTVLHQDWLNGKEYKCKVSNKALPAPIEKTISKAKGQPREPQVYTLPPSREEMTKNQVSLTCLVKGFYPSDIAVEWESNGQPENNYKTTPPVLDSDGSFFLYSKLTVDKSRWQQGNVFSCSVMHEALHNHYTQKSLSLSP
light: DIVMTQSPATLSLSPGERATLSCTSSQSVYHANWLSWFQQKPGQPPKLLIYWASTLAYGVPSRFSGSGSGTDFTLTISSLQPEDAATYYCAGGYGGGRYAFGQGTKVEIKRTVAAPSVFIFPPSDEQLKSGTASVVCLLNNFYPREAKVQWKVDNALQSGNSQESVTEQDSKDSTYSLSSTLTLSKADYEKHKVYACEVTHQGLSSPVTKSFNRGEC
notes: as for B2
B19: M103205H795-MY044/M103202L889-SK1 (antibody, human IgG1, kappa)
heavy: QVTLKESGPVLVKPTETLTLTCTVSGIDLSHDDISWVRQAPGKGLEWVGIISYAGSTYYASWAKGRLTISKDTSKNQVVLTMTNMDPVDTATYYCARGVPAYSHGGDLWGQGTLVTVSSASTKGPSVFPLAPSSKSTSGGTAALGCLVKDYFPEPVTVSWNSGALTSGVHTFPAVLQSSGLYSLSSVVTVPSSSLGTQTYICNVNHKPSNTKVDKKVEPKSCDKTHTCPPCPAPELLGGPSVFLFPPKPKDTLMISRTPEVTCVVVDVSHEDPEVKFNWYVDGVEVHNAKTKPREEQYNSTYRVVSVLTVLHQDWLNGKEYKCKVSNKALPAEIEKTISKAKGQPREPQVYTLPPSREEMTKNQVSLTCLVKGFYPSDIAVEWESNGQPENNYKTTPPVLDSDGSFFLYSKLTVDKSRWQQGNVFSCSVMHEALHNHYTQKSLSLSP
light: DIVMTQSPATLSLSPGERATLSCTSSQSVYHANWLSWFQQKPGQPPKLLIYWASTLAYGVPSRFSGSGSGTDFTLTISSLQPEDAATYYCAGGYGGGRYAFGQGTKVEIKRTVAAPSVFIFPPSDEQLKSGTASVVCLLNNFYPREAKVQWKVDNALQSGNSQESVTEQDSKDSTYSLSSTLTLSKADYEKHKVYACEVTHQGLSSPVTKSFNRGEC
notes: as for B2
B20: M103205H795-MY014/M103202L889-SK1 (antibody, human IgG1, kappa)
heavy: not shown
light: DIVMTQSPATLSLSPGERATLSCTSSQSVYHANWLSWFQQKPGQPPKLLIYWASTLAYGVPSRFSGSGSGTDFTLTISSLQPEDAATYYCAGGYGGGRYAFGQGTKVEIKRTVAAPSVFIFPPSDEQLKSGTASVVCLLNNFYPREAKVQWKVDNALQSGNSQESVTEQDSKDSTYSLSSTLTLSKADYEKHKVYACEVTHQGLSSPVTKSFNRGEC
notes: as for B2
B21: M103205H795-MY043/M103202L889-SK1 (antibody, human IgG1, kappa)
heavy: not shown
light: DIVMTQSPATLSLSPGERATLSCTSSQSVYHANWLSWFQQKPGQPPKLLIYWASTLAYGVPSRFSGSGSGTDFTLTISSLQPEDAATYYCAGGYGGGRYAFGQGTKVEIKRTVAAPSVFIFPPSDEQLKSGTASVVCLLNNFYPREAKVQWKVDNALQSGNSQESVTEQDSKDSTYSLSSTLTLSKADYEKHKVYACEVTHQGLSSPVTKSFNRGEC
notes: as for B2

The target in this assay is T1, cynomolgus monkey FcγRIIIaS …. The assay is described as follows: SPR; KD of SG1 / KD of variant.
Take B1: the “KD fold (SG1 = 1)” value is 1 fold.

On to B2, for which the “KD fold (SG1 = 1)” value was 1.29 fold. Regarding B3, the “KD fold (SG1 = 1)” value was 1.16 fold. As to B4, the “KD fold (SG1 = 1)” value worked out at 0.73 fold. With B5 the figure was 0.67 fold; with B6, 1.64 fold. B7: the “KD fold (SG1 = 1)” value was 3.27 fold.

For B8, the “KD fold (SG1 = 1)” value worked out at 1.13 fold. Take B9: the “KD fold (SG1 = 1)” value turned out to be 0.97 fold. In the case of B10, the “KD fold (SG1 = 1)” value is 3 fold.

On to B11, for which the “KD fold (SG1 = 1)” value came out at 0.97 fold. With B12 the figure was 1.57 fold.

As for B13, the “KD fold (SG1 = 1)” value is 1.8 fold. With B14, the “KD fold (SG1 = 1)” value was found to be 2.57 fold. As to B15, the “KD fold (SG1 = 1)” value amounted to 1.38 fold. For B16, the “KD fold (SG1 = 1)” value was 4.19 fold.

B17: the “KD fold (SG1 = 1)” value is 5.37 fold. Take B18: the “KD fold (SG1 = 1)” value turned out to be 1.09 fold.

Consider B19, for which the “KD fold (SG1 = 1)” value was 0.77 fold. Turning to B20, the “KD fold (SG1 = 1)” value stood at 0.9 fold. Regarding B21, the “KD fold (SG1 = 1)” value is 0.43 fold.
